This data set deals with the molecule itself. The experiment in a line: native gel or EMSA; 4%-16% Bis-Tris Native gel; 50 μM IspG, 50 μM IspH and a mixture of 25 μM each. (A gel shift assay detects complexes by their altered migration in electrophoresis.)

B1: Z. mobilis Strep-tag II IspG (enzyme, UniProt Q5NR50 1-377, looked up)
chain: MSIRPWRHIERRKSRKIMVGNVAVGGDAPISVQTMTNTPTVDAQATIAQIKRCEAVGVDLIRVSCPDKESTAALKDIVRAAEVPIIADIHFHYKRALEAADAGAACLRINPGNIGSSERVAEVVRAAKANGCAIRIGVNAGSLEKELLEKYGEPCPDALVESALNHIKLLQDQDFHEFKVAVKASDVFLAVASYKALAKAVDCPLHLGITEAGGLIGGTVKSALGIGNLLWDGIGDTLRVSLSADPEQEVRVGYDILKTLDLRTRGVRVVSCPSCARQGFDVVKTVKALEERLAHIATPISLSILGCVVNGPGEARETDIGVTGGGQGKHMVFLSGVTDHTVEDAKMLDHIVSLVEAKAAEIEAEKAKEKAATVAAE
notes: IspG of Zymomonas mobilis ZM4; coding region amplified from genomic DNA; carries a [4Fe-4S] cluster (occupancy 5-10%); also called Z. mobilis IspG; ispGZM; source: E. coli PK13681 (BL21 (DE3) derivative) with pPK13651 (pET11a), purified anaerobically (Streptrap HP, PD-10 desalting); not shown: Strep-tag II, C-terminal, kept
As to B1, the “stoichiometry N” value worked out at 2.

Broadly, the stoichiometry N is the number of molecules, sites or subunits per partner or assembly.

(Values after publication PMC11218510, “Functional analysis of the methylerythritol phosphate pathway terminal enzymes IspG and IspH from Zymomonas mobilis” (Microbiology Spectrum, 2024).)
